Paper PMC10663602, “The structure of the teleost Immunoglobulin M core provides insights on polymeric antibody evolution, assembly, and function” (Nature Communications, 2023)

B1: hFcµ-tFcµ-chi4 (other)
chain: TAIRVFAIPPSFASIFLTKSTKLTCLVTDLTTYDSVTISWTRQNGEAVKTHTNISESHPNATFSAVGEASICEDDWNSGERFTCTVTHTDLPSPLKQTISRPKGVALHRPDVYLLPPAREQLNLRESATITCLVTGFSPADVFVQWMQRGQPLSPEKYVTSAPMPEPQAPGRYFAHSILTVSEEEWNTGETYTCVVAHEALPNRIIMRTIDRTSNQPNLVNLSLNVPQRCMAQ
modifications: N-glycosylated; probable tetramer (P1), also a monomer fraction (P2) / N-glycosylated; probable tetramer (P1), also a monomer fraction (P2)
B2: full-length hFcµ expressed without JC (domain or fragment)
chain: TAIRVFAIPPSFASIFLTKSTKLTCLVTDLTTYDSVTISWTRQNGEAVKTHTNISESHPNATFSAVGEASICEDDWNSGERFTCTVTHTDLPSPLKQTISRPKGVALHRPDVYLLPPAREQLNLRESATITCLVTGFSPADVFVQWMQRGQPLSPEKYVTSAPMPEPQAPGRYFAHSILTVSEEEWNTGETYTCVVAHEALPNRVTERTVDKSTGKPTLYNVSLVMSDTAGTCY
modifications: N-glycosylated, disulfide-linked hexamer of Fc dimers without J chain. Secretory form with tailpiece. N-terminus taken at TAIRVF (T343 in the paper's numbering), as in the printed chimeras; entity …

Assays:
hFcµ-tFcµ-chi4 = biological target: T1, hFcµ-tFcµ-chi4 (human | Oncorhynchus mykiss (rainbow …)); test: SEC-MALS; Superose 6 Increase 10/300, TBS buffer, 0.5 ml/min, 25 °C; 100 uL of protein at approximately 2 g/L; pIg peaks isolated from mIg by SEC before the analysis; conditions: both partners purified
T1 chain: B1 chain

[1] = biological target: full-length hFcµ expressed without JC (human, UniProt P01871 106-433); test: as above; conditions: both partners purified
Sequence of full-length hFcµ expressed without JC (P01871 106-433): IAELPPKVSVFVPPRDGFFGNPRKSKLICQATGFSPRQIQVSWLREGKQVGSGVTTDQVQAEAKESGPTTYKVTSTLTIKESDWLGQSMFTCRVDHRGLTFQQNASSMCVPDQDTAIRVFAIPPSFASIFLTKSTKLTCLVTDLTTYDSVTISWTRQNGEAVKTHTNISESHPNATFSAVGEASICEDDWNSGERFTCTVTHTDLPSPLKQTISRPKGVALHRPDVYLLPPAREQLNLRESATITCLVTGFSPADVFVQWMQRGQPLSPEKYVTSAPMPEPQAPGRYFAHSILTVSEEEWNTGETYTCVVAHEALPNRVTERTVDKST

| Binder | stoichiometry N (hFcµ-tFcµ-chi4) | stoichiometry N [1] |
| --- | --- | --- |
| B1 | ~4 | – |
| B2 | – | 6 |
